Test results as given in the DeepSol protein solubility set.

Test: soluble on expression in E. coli; label from the status in PepcDB or PDB records

| Sequence | soluble on expression in E. coli |
| --- | --- |
| MASLAKNLKNVTPNVRRAVVTWDKAERIQRNEEIFKNSESVVHRLPEHYKTRYWETILSDKTPVHYRPPTSRFAHDSFKNVEIELEENPIIGIRTPEGDDGLWGGERVVKGWIESAPYTKKKILPRYWVPKLFFPALKNVVLYSEILDKYIKVTVTERAMRLIDEHFGLDYYILESKEIDLDSKFANSLKREMLLTLTTESYYEENDEKKAYIKEKYADFVIPEREAEWIGLELNEAARKQQDMEDSTAPEPLKYKFEQSLLERLRDGTDEISQELENPEAPMKTESKFGDKMFGKYLNPIGKKLRSATN | not soluble |
| MASSAQSGGSSGGPAVPTVQRGIIKMVLSGCAIIVRGQPRGGPPPERQINLSNIRAGNLARRAAATQPDAKDTPDEPWAFPAREFLRKKLIGKEVCFTIENKTPQGREYGMIYLGKDTNGENIAESLVAEGLATRREGMRANNPEQNRLSECEEQAKAAKKGMWSEGNGSHTIRDLKYTIENPRHFVDSHHQKPVNAIIEHVRDGSVVRALLLPDYYLVTVMLSGIKCPTFRREADGSETPEPFAAEAKFFTESRLLQRDVQIILESCHNQNILGTILHPNGNITELLLKEGFARCVDWSIAVYTRGAEKLRAAERVAKERRLRIWRDYVAPTANLDQKDKQFVAKVMQVLNADAIVVKLNSGDYKTIHLSSIRPPRLEGENTQDKNKKLRPLYDIPYMFEAREFLRKKLIGKKVNVTVDYIRPASPATETVPAFSERTCATVTIGGINIAEALVSKGLATVIRYRQDDDQRSSHYDELLAAEARAIKNGKGLHSKKEVPIHRVADISGDTQKAKQFLPFLQRAGRSEAVVEYVFSGSRLKLYLPKETCLITFLLAGIECPRGARNLPGLVQEGEPFSEEATLFTKELVLQREVEVEVESMDKAGNFIGWLHIDGANLSVLLVEHALSKVHFTAERSSYYKSLLSAEEAAKQKKEKVWAHYEEQPVEEVMPVLEEKERSASYKPVFVTEITDDLHFYVQDVETGTQLEKLMENMRNDIASHPPVEGSYAPRRGEFCIAKFVDGEWYRARVEKVESPAKIHVFYIDYGNREVLPSTRLGTLSPAFSTRVLPAQATEYAFAFIQVPQDDDARTDAVDSVVRDIQNTQCLLNVEHLSAGCPHVTLQFADSKGDVGLGLVKEGLVMVEVRKEKQFQKVITEYLNAQESAKSARLNLWRYGDFRADDADEFGYSR | soluble |
| MASSTSLAIVLHQSSNHDELFMKQTLQFSETLKDLKNLRKQLYSAAEYFETSYGKAEHKETVIETLKEYAAKAVVNTVDHLGSVSDKFNSFLSDNSTHFSTTHLRLSSLEQRMRLCRDYMGKSGTHQHLLLFQYPRHHKRYFFPQQGRGTSFSAGDDSHRFTSAVRSTILENLPNTARKANKTGSFSFAPIVHNNINNRTPNKRSNSPMRFPLLRSGSLLKRSSSPSQPKKPPLALPEPQRAISVSRNTEIVEIKQSSSRKGKKILMFKALMSMSKSRN | soluble |
| MASTGLRVDLYEEHGRVGMPEHCTGIVSERTVNTIGREARETIIDSYDSLEIRFRGETLAVLDVGTVYRLDRVRLEELLLESLMSLGGRAQLGKRVHSVGIEGSVKAGGSEARYDAVILADGAHGELHRMLDLGYRGDYYYGLNILVPGKRESTILVDFILDRGLAFTWDVPTVGSVSVAGAMGTLAGVKRFFEVLKPRAFKVYGGRIPAGPPAERLRRGRVYVVGDAGGLVKPLSGGGLYPNAKAAKLAASLIKRGLDVGEALEKSLSIVSHELRAQHAVARLVYGTRVLETISRAVGGAPLRLRLDYDTHHQLVISTLSQVGALSSQRLAAAALRGGGLEAPLSLVKVLYHSSASAYKRLASGRLPGVLEHHHHHH | not soluble |
| MASVPENQAPKAIFTFSPEDPVTDENVVFNASNSIDEDGTIAYYVWDFGDGYEGTSTTPTITYKYKNPGTYKVKLIVTDNQGASSSFTATIKVTSATGDNSKFNFEDGTLGGFTTSGTNATGVVVNTTEKAFKGERGLKWTVTSEGEGTAELKLDGGTIVVPGTTMTFRIWIPSGAPIAAIQPYIMPHTPDWSEVLWNSTWKGYTMVKTDDWNEITLTLPEDVDPTWPQQMGIQVQTIDEGEFTIYVDAIDWLEHHHHHH | soluble |
| MATAAVTDDIEEGARKAPALIRYLAEGEYVTRRYVSQGAEMNTGEYADYECVVRDGMPIRDHFTLDVHGFALGRHRSAVADFHDKPTVDALYLDEVEELVTRLCGAARTAAQGWMIRTSADLTERAKQKVQGYQHSGGIQPPAGEAHVDYNEVTGRRAAARVYADRFPDGPGYKRYICFSLWRTFSPGPQDWPLAVCDGRTVRDEETASNTLFVVDEFPVGDALTAPVEGEDQMIAATIFRHRDRHRWWYFSNMAADDVLLFKFQDSDHSVTWRCPHTAFHDTSLPDAKTRSSIEVRCIAFFELEHHHHHH | soluble |
| MATCGRRDDILDLLKSLEQQTYKNFELIVVDQNDTPISDLFDEYKDKFSINYIYTPIKGLSRARNAGLKVADGDFIAFPDDDCIYEKNVLESILETFNSNKDVHFISTNTTNVEGTGSLIHAPNTDIILNNKYGFMGPSFTLFFTKQFVQDVGTFDEDLGVGSGTIYGAGEETDFVLRGMKQNYTGLFRKDLFVYHPVKEEIINEQSLKRAISYAGGFGRIIRLHYGFPYFLRAVAAATFRMTQNISNDKRKFHANRLRGIVRGYLK | not soluble |
| MATFASRELTEEDDSHPGPSEKSEKDVLGIVRTGPKKLITGESSSLFKLKNELLKRKDRLNSEVHIKHTETHVSGKSNLLSTKKEEKERQARKDESRKLRIEKNERAVRREEDEARLMAAQQKLREKSELYDRMQEGNVVLANLDDTPVEFLVDFGTKKRRIEEERAWERERYREQEEAAPIGFGRAPIPEHYHHSEEQRVYGTSHMRLSLNENKRKEEIEKLLEMSKKTDMDKAKKKETEKHRDILRREKLNKLRAKHGLELLPEIVEPVAVPASQIDLNSIPLPGQKETPEERHARLMKSDREWDRGKGHYTTWIEKQRDERDDEFRPPDSYFR | soluble |
| MATKLQDGNTPCLAATPSEPRPTVLVFDSGVGGLSVYDEIRHLLPDLHYIYAFDNVAFPYGEKSEAFIVERVVAIVTAVQERYPLALAVVACNTASTVSLPALREKFDFPVVGVVPAIKPAARLTANGIVGLLATRGTVKRSYTHELIARFANECQIEMLGSAEMVELAEAKLHGEDVSLDALKRILRPWLRMKEPPDTVVLGCTHFPLLQEELLQVLPEGTRLVDSGAAIARRTAWLLEHEAPDAKSADANIAFCMAMTPGAEQLLPVLQRYGFETLEKLAVLG | soluble |
| MATKSVLMLGSGFVTRPTLDVLTDSGIKVTVACRTLESAKKLSAGVQHSTPISLDVNDDAALDAEVAKHDLVISLIPYTFHATVIKSAIRQKKHVVTTSYVSPAMMELDQAAKDAGITVMNEIGLDPGIDHLYAIKTIEEVHAAGGKIKTFLSYCGGLPAPESSDNPLGYKFSWSSRGVLLALRNAASFYKDGKVTNVAGPELMATAKPYFIYPGFAFVAYPNRDSTPYKERYQIPEADNIVRGTLRYQGFPQFIKVLVDIGFLSDEEQPFLKEAIPWKEATQKIVKASSASEQDIVSTIVSNATFESTEEQKRIVAGLKWLGIFSDKKITPRGNALDTLCATLEEKMQFEEGERDLVMLQHKFEIENKDGSRETRTSSLCEYGAPIGSGGYSAMAKLVGVPCAVAVKFVLDGTISDRGVLAPMNSKINDPLMKELKEKYGIECKEKVVA | soluble |
| MATLIYVDKENGEPGTRVVAKDGLKLGSGPSIKALDGRSQVSTPRFGKTFDAPPALPKATRKALGTVNRATEKSVKTKGPLKQKQPSFSAKKMTEKTVKAKSSVPASDDAYPEIEKFFPFNPLDFESFDLPEEHQIAHLPLSGVPLMILDEERELEKLFQLGPPSPVKMPSPPWESNLLQSPSSILSTLDVELPPVCCDIDILEHHHHHH | not soluble |
| MATQKEKPSSNSFKWFSTKTLKLNLSFQNRRRSPKSNSSSTLNSPRSNSDDNNNIKSHQASKEELRQVFSHFDSDGDGKISAFELRHYFGSVGEYISHEAAQEAINEVDTDADGSLGFEDFVGLMTRRDLYGDGEVDGDGELKTAFEMFEVEKGSGCITPKGLQKMLVKLGESRTYGECEAMIKFYDIDGNGILDFHEFRQMMTV | soluble |
| MATVDPIRYPIGTFQAPQQFEAGEVQEWIAAIRGLPSDLRTAVSGLNDEQLNTPYREGGWTVAQVVHHLADASMNAFLRTKWGVTEDGPTVKPFAESEWAKTADACLLPIEPSLLLLDGLHARWAALLESMTEADFHRTVRPEGAAGEMPLYVLTALYAWHGKHHTAQVASLRKRKGW | soluble |
| MATVTELKAVLKDTLEKRGVLGHLKARIRAEVFNALDDDREPRPSLSHENLLINELIREYLEFNKYKYTASVLIAESGQPVVPLDRQFLIRELNAFEESKDNSIPLLYGILAHFLRGPPDGAQNVLLTESTLHPATKHLSWKPSRRPDDDHVRKDTGPRTTTEELPAAAQAVSR | soluble |
| MAVDAVNSAAANPWANAGASSSDKNAASLNYDSFLKLLIAQMKNQDPTSPMDAGQQMSQLASFSQVEQTIKTNTHLKSMLQAEALTRASDLVGKTVMSADDKVTGVVKEVQVFSDGIVAVTEAGDKVLLQAGVVFSNGPITTKSDETTADSNNSAGS | not soluble |
| MAVDWPRGGLMPRLRRLEDLLPHIREGRYRLGPHAAKHMLQEGFREQDILSALLWGRELAIYPEDERMLVLGYMVFPPRLRLPLHVVLEYSTPRHVDIVTAFIPREPYRVYSRARLAALLRFDGALEEVRWTGPKHLYPPWD | soluble |
| MAVSHSVKERTISENSLIILLQGLQGRVTTVDLRDESVAHGRIDNVDAFMNIRLAKVTYTDRWGHQVKLDDLFVTGRNVRYVHIPDDVNITSTIEQQLQIIHRVRNFGGKGQGRWEFPPKNCK | not soluble |
| MAYLYELEGIYAQLQSMDLDEETFQDTLDSIDFQSDLENNIEYFVKMLKNVQADAEKYKAEKEAFYKKQKQAEAKAEKYKETIRLAMELSQKKKVDAGMFKVSLRRSKKVEILDETKIPLDYMQEKIEYKPMKAEISKALKSGIDISGVELIETESLQVK | not soluble |
| MAYSNDEIVKGIDGIYSNENPNSNIKYVINESRFNASQLCKTKKGIKQMSDEWLLEDGGKRILEAVNGDRKLQKDIIRVLNKGQVEKVLSRVGKDGKVTTYRLNSNGEIIGFWP | not soluble |
